# Test results: the supplement of paper PMC7877785
# ± gives the uncertainty stated by the source.
# Assay: self-splicing fitness, log relative to wild type (ln ratio); higher = more splicing; Tetrahymena group I intron in knt gene, E. coli kanamycin selection, DiMSum; sequences stand for … in CUCUCU…GGAGGGAAAAGUUAUCAGGCAUGCACCUGGUAGCUAGUCUUUAAACCAAUAGAUUGCAUCGGUUUAAAAGGCAAGACCGUCAAAUUGCGGGAAAGGGGUCAACAGCCGUUCAGUACCAAGUCUCAGGGGAAACUUUGAGAUGGCCUUGCAAAGGGUAUGGUAAUAAGCUGACGGACAUGGUCCUAACCACGCAGCCAAGUCCUAAGUCAACAGAUCUUCUGUUGAUAUGGAUGCAGUUCACAGACUAAAUGUCGGUCGGGGAAGAUGUAUUCUUCUCAUAAGAUAUAGUCGGACCUCUCCUUAAUGGGAGCUAGCGGAUGAAGUGAUGCAACACUGGAGCCGCUGGGAACUAAUUUGUAUGCGAAAGUAUAUUGAUUAGUUUUGGAGUACUCGUGGUCG
# Outline: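 Pooled colonies went to amplicon sequencing on an Illumina HiSeq 2500 after six replicate transformations. The plates were LB agar with 100 μg/mL carbenicillin, 50 μM IPTG and 0.2% rhamnose, with or without 25 μg/mL kanamycin, incubated overnight at 37°C or 30°C. The E. coli BL21(DE3) library had all eight P1ex-region intron nucleotides randomised, the intron placed in the knt kanamycin-resistance gene on pET-22b(+). DiMSum fitness is the error-weighted combination of replicate fold changes, kanamycin against none, normalised to wild type.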
Sequence,self-splicing fitness (ln) (30 °C),self-splicing fitness (ln) (37 °C)
GAUAAGCAAUAUUACGCGAC,-1.41 ± 0.14,-1.54 ± 0.23
GAUAAGCAAUAUUACGCGUG,-0.603 ± 0.072,-0.471 ± 0.088
GAUAAGCAAUAUUACGCUCU,-2.11 ± 0.18,-0.116 ± 0.2
GAUAAGCAAUAUUACGGGAA,-2.84 ± 0.25,-1.99 ± 0.22
GAUAAGCAAUAUUACGGGUA,-1.69 ± 0.14,-1.37 ± 0.17
GAUAAGCAAUAUUACGGGUC,-3.26 ± 0.14,-1.81 ± 0.13
GAUAAGCAAUAUUACGGUCU,-2.33 ± 0.12,-1.46 ± 0.14
GAUAAGCAAUAUUACGGUGA,-1.61 ± 0.093,-1.1 ± 0.12
GAUAAGCAAUAUUACGGUUA,-0.72 ± 0.12,0.108 ± 0.11
GAUAAGCAAUAUUACGUACC,-0.984 ± 0.2,-0.641 ± 0.21
GAUAAGCAAUAUUACGUCCA,-1.72 ± 0.15,-0.215 ± 0.17
GAUAAGCAAUAUUACGUGCA,-0.463 ± 0.15,-1.06 ± 0.18
GAUAAGCAAUAUUACGUGUC,-2.29 ± 0.21,-2.5 ± 0.31
GAUCAGCAAUAUUACGAAAA,-0.449 ± 0.2,-0.691 ± 0.23
GAUCAGCAAUAUUACGAAUA,-0.747 ± 0.11,-0.471 ± 0.15
GAUCAGCAAUAUUACGAAUC,-3.46 ± 0.41,-2.61 ± 0.39
GAUCAGCAAUAUUACGACCA,-1.08 ± 0.092,0.352 ± 0.15
GAUCAGCAAUAUUACGAGAC,-3.07 ± 0.44,-1.86 ± 0.13
GAUCAGCAAUAUUACGAUAA,0.273 ± 0.069,0.106 ± 0.076
GAUCAGCAAUAUUACGCACU,0.181 ± 0.092,0.467 ± 0.1
GAUCAGCAAUAUUACGCCAA,-1.95 ± 0.15,-0.747 ± 0.12
GAUCAGCAAUAUUACGCCGG,-1.75 ± 0.18,-1.41 ± 0.21
GAUCAGCAAUAUUACGCUAU,-0.967 ± 0.24,-0.471 ± 0.15
GAUCAGCAAUAUUACGCUCA,-0.493 ± 0.084,-0.611 ± 0.1
GAUCAGCAAUAUUACGCUCG,0.0547 ± 0.089,-0.0564 ± 0.12
GAUCAGCAAUAUUACGGAAC,-0.655 ± 0.094,-0.0305 ± 0.12

Sequence,self-splicing fitness (ln) (30 °C),self-splicing fitness (ln) (37 °C)
GAUCAGCAAUAUUACGGAAU,-1.27 ± 0.065,-0.181 ± 0.087
GAUCAGCAAUAUUACGGAGU,-1.16 ± 0.077,-0.717 ± 0.11
GAUCAGCAAUAUUACGGCCC,-1.65 ± 0.21,-0.61 ± 0.2
GAUCAGCAAUAUUACGGGGC,-3.2 ± 0.25,-2.38 ± 0.22
GAUCAGCAAUAUUACGGGUC,-3.38 ± 0.21,-3.05 ± 0.25
GAUCAGCAAUAUUACGGUGG,-1.36 ± 0.057,-0.762 ± 0.073
GAUCAGCAAUAUUACGUAGC,-0.999 ± 0.11,-0.402 ± 0.12
GAUCAGCAAUAUUACGUCCA,-0.96 ± 0.18,-0.173 ± 0.17
GAUCAGCAAUAUUACGUGUA,-1.36 ± 0.069,-0.723 ± 0.082
GAUCAGCAAUAUUACGUUCA,-0.939 ± 0.15,-0.942 ± 0.18
GAUGAGCAAUAUUACGAAAU,-1.53 ± 0.18,-1.92 ± 0.37
GAUGAGCAAUAUUACGAAGG,-1.14 ± 0.26,
GAUGAGCAAUAUUACGAAUC,-3.19 ± 0.41,-1.89 ± 0.29
GAUGAGCAAUAUUACGACAU,-1.797 ± 0.016,-1.02 ± 0.034
GAUGAGCAAUAUUACGACCG,-2.84 ± 0.36,-1.95 ± 0.43
GAUGAGCAAUAUUACGACUA,-1.79 ± 0.12,-0.933 ± 0.11
GAUGAGCAAUAUUACGCGAA,-3.16 ± 0.16,-2.04 ± 0.17
GAUGAGCAAUAUUACGCUGC,,-1.25 ± 0.48
GAUGAGCAAUAUUACGCUGG,-2.08 ± 0.18,-1.02 ± 0.3
GAUGAGCAAUAUUACGGACU,-1.79 ± 0.25,-1.66 ± 0.38
GAUGAGCAAUAUUACGGAGA,-2.91 ± 0.5,-3 ± 0.47
GAUGAGCAAUAUUACGGCAU,-1.71 ± 0.29,-1.79 ± 0.39
GAUGAGCAAUAUUACGGCUA,-1.01 ± 0.17,-1.41 ± 0.17
GAUGAGCAAUAUUACGGCUG,-1.42 ± 0.19,-1.36 ± 0.16
GAUGAGCAAUAUUACGGGAG,-3.76 ± 0.25,-1.54 ± 0.41
GAUGAGCAAUAUUACGGGGU,-3.36 ± 0.23,-2.92 ± 0.32

Sequence,self-splicing fitness (ln) (30 °C),self-splicing fitness (ln) (37 °C)
GAUGAGCAAUAUUACGGUAA,-2.21 ± 0.29,-2.95 ± 0.38
GAUGAGCAAUAUUACGGUGU,-3.67 ± 0.22,-1.15 ± 0.13
GAUGAGCAAUAUUACGGUUG,-3.87 ± 0.21,-2.22 ± 0.18
GAUGAGCAAUAUUACGUCAU,-3.15 ± 0.32,-2.99 ± 0.32
GAUGAGCAAUAUUACGUCCC,-2.06 ± 0.43,-1.04 ± 0.44
GAUGAGCAAUAUUACGUCGU,-2.4 ± 0.15,-2.13 ± 0.17
GAUGAGCAAUAUUACGUGCU,-2.91 ± 0.44,
GAUGAGCAAUAUUACGUGGG,-3.45 ± 0.21,-3.04 ± 0.27
GAUGAGCAAUAUUACGUUCG,-2.05 ± 0.14,-0.925 ± 0.18
GAUUAGCAAUAUUACGAACU,-0.696 ± 0.15,-0.559 ± 0.19
GAUUAGCAAUAUUACGACGC,0.277 ± 0.14,0.361 ± 0.14
GAUUAGCAAUAUUACGAGCA,-1.27 ± 0.17,0.106 ± 0.14
GAUUAGCAAUAUUACGAUAA,-0.956 ± 0.12,0.0487 ± 0.15
GAUUAGCAAUAUUACGCAGA,-3.16 ± 0.23,-1.16 ± 0.16
GAUUAGCAAUAUUACGCCCA,-0.748 ± 0.11,0.123 ± 0.14
GAUUAGCAAUAUUACGCGUA,-1.01 ± 0.1,-0.855 ± 0.091
GAUUAGCAAUAUUACGGCGG,-0.96 ± 0.16,-2.17 ± 0.25
GAUUAGCAAUAUUACGGGAA,-1.67 ± 0.26,-3.27 ± 0.43
GAUUAGCAAUAUUACGGGGA,-2.86 ± 0.19,-2.71 ± 0.2
GAUUAGCAAUAUUACGGGUC,,-2.78 ± 0.34
GAUUAGCAAUAUUACGUACU,-0.632 ± 0.073,0.0191 ± 0.088
GAUUAGCAAUAUUACGUAGC,-1.74 ± 0.14,-1.33 ± 0.18
GAUUAGCAAUAUUACGUGGA,-3.92 ± 0.3,-0.488 ± 0.13
GAUUAGCAAUAUUACGUGGC,-3.36 ± 0.25,-2.3 ± 0.21
